Measurements as given in patent US20110117021A1 (BIOTIE THERAPIES, published 2011).

T1: recombinant human Vascular Adhesion Protein-1 (rhVAP-1), purified from CHO cells (human, UniProt Q16853 1-763, limits assumed)
T1 construct: also called recombinant human VAP-1
T1 sequence (looked up): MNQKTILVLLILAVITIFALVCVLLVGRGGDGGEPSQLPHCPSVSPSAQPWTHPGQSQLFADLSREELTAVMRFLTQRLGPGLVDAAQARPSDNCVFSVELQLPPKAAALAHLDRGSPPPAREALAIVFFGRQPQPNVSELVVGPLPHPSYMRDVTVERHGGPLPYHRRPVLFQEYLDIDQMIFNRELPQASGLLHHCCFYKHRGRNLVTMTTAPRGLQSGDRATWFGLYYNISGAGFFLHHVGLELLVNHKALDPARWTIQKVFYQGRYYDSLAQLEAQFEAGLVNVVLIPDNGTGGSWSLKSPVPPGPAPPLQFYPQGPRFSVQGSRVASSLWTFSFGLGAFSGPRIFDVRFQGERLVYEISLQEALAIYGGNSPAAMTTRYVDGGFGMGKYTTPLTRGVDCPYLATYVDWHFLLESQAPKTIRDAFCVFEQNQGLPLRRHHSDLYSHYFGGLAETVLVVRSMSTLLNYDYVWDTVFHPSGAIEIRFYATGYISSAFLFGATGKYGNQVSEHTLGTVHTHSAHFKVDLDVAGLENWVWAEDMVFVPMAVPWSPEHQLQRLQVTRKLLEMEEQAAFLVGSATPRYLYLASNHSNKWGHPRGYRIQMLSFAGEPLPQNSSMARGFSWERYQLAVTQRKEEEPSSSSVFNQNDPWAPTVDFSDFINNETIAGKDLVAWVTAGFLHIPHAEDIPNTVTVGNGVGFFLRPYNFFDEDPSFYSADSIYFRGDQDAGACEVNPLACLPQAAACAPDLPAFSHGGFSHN

B1: fully human anti-VAP-1 monoclonal antibody 8C10 (hybridoma-derived) (antibody, human IgG1, V domains shown)
VH: QVQLVESGGGVVQPGRSLRLSCAASGFTFFSYAMHWVRQTPGKGLEWVAVIWFDGSNENYVDSVKGRFTISRDNSKNTLYLQMNTLRAEDTAVYYCARDAWSYFDYWGQGTLVTVSS
VL: VIQLTQSPSSLSASVGDRVTITCRASQGISRALAWYQQKPGKGPKLLIYDASSLESGVPSRFSGSGSGTDFTLTISSLQPEDFATYYCQQFNSYPLTFGGGTKVEIK
B2: fully human anti-VAP-1 monoclonal antibody 3F10 (hybridoma-derived) (antibody, human IgG1, V domains shown)
VH: QVQLVESGGGVVQPGRSLRLSCAASGFTFSSYAMHWVRQAPGKGLEWVAVLWFDGSNEDYADSVKGRFTISRDNSKNTLYLQMNSLRAEDTAVYYCARDGWGYFDYWGQGTLVTVSS
VL: AIQLTQSPSSLSASVGDRVTITCRASQGISRALAWYQQKPGKAPKLLIYDASNLERGVPSRFSGSGSGTDFTLTISSLQPEDFATYYCQQFNSFPLTFGGGTKVEIK
B3: recombinant fully human anti-VAP-1 antibody r8C10 (BTT-1023) (antibody, human IgG4 S228P, kappa, V domains shown)
VH: QVQLVESGGGVVQPGRSLRLSCAASGFTFFSYAMHWVRQTPGKGLEWVAVIWFDGSNENYVDSVKGRFTISRDNSKNTLYLQMNTLRAEDTAVYYCARDAWSYFDYWGQGTLVTVSS
VL: VIQLTQSPSSLSASVGDRVTITCRASQGISRALAWYQQKPGKGPKLLIYDASSLESGVPSRFSGSGSGTDFTLTISSLQPEDFATYYCQQFNSYPLTFGGGTKVEIKR
notes: also called recombinant 8C10
B4: fully human anti-VAP-1 monoclonal antibody 5F12 (hybridoma-derived) (antibody, V domains shown)
VH: QVQLVDSGGDVVQPGRSLRLSCAASGFSFSRSGIHWVRQAPGKGLEWVAVIWYDGIYKYYADSVKGRFTISRDNSKNTLYLQMNSLRAEDTAVYYCAREKNWGIDYWGQGTLVTVSS
VL: DIQMTQSPSSLSASVGDRVTITCRASQGISSWLAWYQQKPEKAPKSLIYGASSLQSGVPSRFSGSGSGTDFTLTISSLQPEDFATYYCQQYNSYPRTFGQGTKVEIK
B5: fully human anti-VAP-1 monoclonal antibody 4B3 (hybridoma-derived) (antibody, human IgG1, V domains shown)
VH: EVQLVQSGGGLVHPGGSLRLSCAGSGFPVSSYGMHWVRQAPGKGLEWVSAIGVGGGTYHVDSVKGRFTISRDNAKNSLYLQMNSLRAGDMAVYYCARDPGFGEVYFDYWGQGTLVTVSS
VL: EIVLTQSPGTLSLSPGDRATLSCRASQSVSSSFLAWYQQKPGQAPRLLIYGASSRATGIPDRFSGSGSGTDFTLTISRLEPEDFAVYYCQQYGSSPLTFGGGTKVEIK
B6: fully human anti-VAP-1 monoclonal antibody 8A4 (hybridoma-derived) (antibody, human IgG1, V domains shown)
VH: EVQLVESGGGLVQPGGSLRLSCAASGFIFSNYWMSWVRQAPGKGLEWVANIKQDGSEKYYVDSVRGRFTVSRDNAKNSLYLQMNSLRAEDTAVYYCARDYFGSGTYFFYFDYWGQGTLVTFSS
VL: EIVLTQSPATLSLSPGERATLSCRASQSVSSYLAWYQQKPGQAPRLLIYDASNRATGIPARFSGSGSGTDFTLTISSLEPEDFAVYYCQQRSNWPLTFGGGTKVEIK

Legend:
[1] = target: T1, recombinant human Vascular Adhesion …; assay: time-resolved immunofluorometric assay, plate coated with rhVAP-1, europium-conjugated anti-human antibody detection
Protocol: A time-resolved immunofluorometric assay was used quantitatively to examine the binding of 5F12, 4B3, 3F10, 8A4 and 8C10 to rhVAP-1. A microtiter plate was coated with rhVAP-1 and then blocked with bovine serum albumin solution. An amount of antibody between 2 and 4320 ng/ml was subsequently added to bind to rhVAP-1 and the bound antibody detected by a europium-conjugated mouse anti-human antibody (Perkin Elmer Inc.). The label was detected by measuring the time-resolved fluorescence (VICTOR³™ multilabel counter, PerkinElmer Inc.) at 615 nm. The fluorescence counts directly correlate with how much antibody was bound to its target. The sample data were then analyzed in comparison to the standard curve of a reference.

[2] = target: T1, recombinant human Vascular Adhesion …; assay: Biacore SPR, BTT-1023 captured on biotinylated protein G' on a streptavidin chip, rhVAP-1 as analyte
Protocol: Constant amounts of rhVAP-1 were used as an analyte for saturating concentration of mAbs (ligands). Experiments were performed using BIALITE® equipment (BIACORE® AB) and the data analyzed using Biacore software.

[3] = target: T1, recombinant human Vascular Adhesion …; assay: time-resolved immunofluorometric assay, plate coated with rhVAP-1, europium-conjugated anti-human antibody detection; remark: listed apart in the source
Protocol: A microtiter plate was coated with rhVAP-1 and then blocked with bovine serum albumin solution. […] The label was detected by measuring the time-resolved fluorescence (VICTOR³™ multilabel counter, PerkinElmer Inc.) at 615 nm. […] The sample data were then analyzed in comparison to the standard curve of a reference.

Binder	Kd [1] [pM]	Kd [2] [pM]	Kd [3] [pM]
B1	210	–	–
B2	250	–	–
B3	–	130	380
B4	650	–	–
B5	310	–	–
B6	280	–	–
